{"source": "paper PMC6059731", "about": "(Science Advances, 2018)", "target": "the molecule itself", "test": "SEC-SAXS", "note": "Ends that are not written are not given here.", "data": [{"protein": "GIGDPVTCLKSGAICHPVFCPRRYKQIGTCGLPGTKCCKKP (natural protein, UniProt O15263 24-64, looked up, ends and bridges not checked; cysteine pairing not given here)", "note": "[Human β-defensin 2 (HBD-2)]", "values": [{"measurement": "monomer/dimer ratio (dimer part of 70:30)", "result": 30}]}]}
